Legend:
[1] = biological target: adalimumab produced in BY-2 lysate; experiment: SPR
[2] = biological target: commercial adalimumab reference product from CHO cells (Humira); experiment: SPR

human FcR I (CD64), sequence (P12314 16-292): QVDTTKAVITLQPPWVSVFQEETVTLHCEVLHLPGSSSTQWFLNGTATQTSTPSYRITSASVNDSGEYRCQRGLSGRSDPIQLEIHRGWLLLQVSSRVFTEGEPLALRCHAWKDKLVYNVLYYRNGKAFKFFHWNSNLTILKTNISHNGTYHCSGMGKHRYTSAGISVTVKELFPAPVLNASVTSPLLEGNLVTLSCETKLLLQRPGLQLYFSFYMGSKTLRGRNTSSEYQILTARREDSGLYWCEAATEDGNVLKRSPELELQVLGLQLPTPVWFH

- Kd [1]: 0.353 nM
- Kd [2]: 0.158 nM
Substance: human FcR I (CD64) (from UniProt P12314) (receptor)

Reference: publication doi:10.1101/2022.11.10.515920
